Data on 17 molecules can be found in US20200247886A1 (ZLIP, published 2020).

Experiment [1] concerns the target T1, human CD47 expressed on cells (CD47 expressing CHO cells, Jurkat, HL60, DLD1, Raji) (human, UniProt Q08722 19-292).
T1 construct: also called CHO-CD47; IAP
In words: flow cytometry on DLD1 cells, IgG, MFI. (In general: In flow cytometry, cells or beads pass a laser one at a time.)

Experiment [2] addresses T1, human CD47 expressed on cells (CD47 …). The experiment can be described thus: flow cytometry on DLD1 cells, IgG, frequency.
In experiment [3] the target is T2, CHO/mCD47-GFP (mouse, UniProt Q61735).
T2 construct: on the cell surface; also called mouse CD47 expressed on CHO cells; CHO cell expressing mouse CD47
T2 sequence (receptor, looked up): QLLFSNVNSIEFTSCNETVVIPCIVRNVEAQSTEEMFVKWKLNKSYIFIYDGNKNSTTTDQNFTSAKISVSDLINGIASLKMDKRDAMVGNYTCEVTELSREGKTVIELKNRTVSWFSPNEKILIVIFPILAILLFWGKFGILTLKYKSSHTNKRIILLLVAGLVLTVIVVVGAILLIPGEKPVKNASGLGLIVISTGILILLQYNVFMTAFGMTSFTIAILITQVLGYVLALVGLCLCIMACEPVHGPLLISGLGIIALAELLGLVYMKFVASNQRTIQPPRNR
In words: flow cytometry on CHO cells expressing mouse CD47-GFP, binding percentage.

Experiment [4] concerns the target T1, human CD47 expressed on cells (CD47 …). In words: flow cytometry on human platelets, MFI.
For experiment [5] the target is unchanged. The experiment can be described thus: flow cytometry on human red blood cells, MFI.
Experiment [6] shares this target. In words: flow cytometry on CD47 expressing CHO cells, MFI (FL-4).
Experiment [7] has as its target T3, CD47 on monkey RBC (Macaca fascicularis, UniProt A0A2K5X523).
T3 construct: native, on red blood cells; also called cynomolgus monkey red blood cells expressing CD47
In words: flow cytometry on cynomolgus monkey red blood cells expressing CD47, MFI.

For experiment [8], the target named is T1, human CD47 expressed on cells (CD47 …). In words: flow cytometry SIRP-alpha blocking assay on Raji cells, MFI.
Experiment [9] has the same target. In words: flow cytometry on human platelets, donor 1, MFI.
The target is the same in experiment [10]. In words: flow cytometry on human platelets, donor 2, MFI.
Experiment [11] shares this target. In words: flow cytometry on human red blood cells, donor 1, MFI.
For experiment [12] the target is unchanged. The experiment can be described thus: flow cytometry on human red blood cells, donor 2, MFI.
In experiment [13] the target is T4, CD47 protein (construct not stated; SPR antigen, CD47 coated ELISA plates) (Homo sapiens (Human), UniProt Q08722 19-139, limits assumed).
T4 construct: also called the antigen
In words: ELISA on CD47, OD450 against Log[M]; column headed KD beside the legend.

Experiment [14] deals with T1, human CD47 expressed on cells (CD47 …). The experiment can be described thus: IC50 as grade, SIRPα blocking on Raji cells; legend +++: <1 nM.
For experiment [15] the target is unchanged. In words: flow cytometry blocking assay on Raji cells, SIRPα is the blocked ligand, MFI.

Changes are numbered by the printed parent chain. Where only a bound is given, the exact number is not on record here.

B1: ABU16 (IgG) (antibody, V domains shown)
VH: RVQLQQSGAELVRPGTSVKVSCKASAYAFTNYLIEWVKKRPGQGLEWIGVINPGSGGTNYNEKFKGKATLTADKSSSTAYMQLSSLTSEDSAVYFCARGDGYGSLFAYWGQGTLVTVSA
VL: RHCFNQSPAIMSASPGEKVTMTCSASSSVSYMHWYQQKSGTSPKRWIYDTSNLASGVPVRFSGSGSGTSYSLTISRMEAEDAATYYCQQWSNYPFTFGSGTKLELK
With B1, the concentration for a half-maximal effect (EC50 (read off the curve)) (commonly the concentration at which the effect is half-maximal) in [1] is ~4 nM; in experiment [2], ~0.4 nM.

B2: ABU7 (antibody, V domains shown)
VH: EVQLQQSGPELVKPGASVKISCKASGYSFTGYYMNWVKQSPEKSLEWIGEINPSTGGTTYNQKFKAKATLTVDKSSSTAYMQLKSLTFEDSAVYYCAIYDGYEGFAYWGQGTLVTVSA
VL: DIKMTQSPSSMYASLGERVTITCKASQDIKSYLSWYQQKPWKSPKTLIYYATSLADGVPSRFSGSGSGQHYSLTISSLESDDTATYYCLQHGESPFTFGSGTKLEIK
notes: Murine hybridoma monoclonal antibody
In the case of B2, the binding result in experiment [3] is given as “no binding (tested: about 0.4 ug/ml)”.

B3: H-ABU10-IgG4-P (antibody)
light chain: DIVMTQSPDSLAVSLGERATINCKSSQSLVSSSQKNYLAWYQQKPGQPPKLLIYWASVRDSGVPDRFSGSGSGTDFTLTISSLQAEDVAVYYCQQYYSYPLTFGQGTKVEIK
heavy chain: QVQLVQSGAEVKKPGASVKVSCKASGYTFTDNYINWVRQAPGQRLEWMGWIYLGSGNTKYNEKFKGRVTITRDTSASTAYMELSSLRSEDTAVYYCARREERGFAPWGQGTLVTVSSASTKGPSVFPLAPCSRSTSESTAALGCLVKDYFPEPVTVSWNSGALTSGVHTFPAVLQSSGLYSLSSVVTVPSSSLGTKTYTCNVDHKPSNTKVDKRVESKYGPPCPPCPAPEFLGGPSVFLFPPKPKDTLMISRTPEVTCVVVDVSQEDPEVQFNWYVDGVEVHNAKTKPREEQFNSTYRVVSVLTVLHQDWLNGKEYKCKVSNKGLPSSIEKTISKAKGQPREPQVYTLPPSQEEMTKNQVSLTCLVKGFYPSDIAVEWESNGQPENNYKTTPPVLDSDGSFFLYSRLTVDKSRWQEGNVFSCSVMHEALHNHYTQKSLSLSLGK
Consider B3, for which the “EC50 (read off the curve)” value in experiment [4] was ~2 nM; in experiment [5], ~4 nM.

B4: H-ABU10-IgG4-PE (antibody)
light chain: B3 light chain
heavy chain: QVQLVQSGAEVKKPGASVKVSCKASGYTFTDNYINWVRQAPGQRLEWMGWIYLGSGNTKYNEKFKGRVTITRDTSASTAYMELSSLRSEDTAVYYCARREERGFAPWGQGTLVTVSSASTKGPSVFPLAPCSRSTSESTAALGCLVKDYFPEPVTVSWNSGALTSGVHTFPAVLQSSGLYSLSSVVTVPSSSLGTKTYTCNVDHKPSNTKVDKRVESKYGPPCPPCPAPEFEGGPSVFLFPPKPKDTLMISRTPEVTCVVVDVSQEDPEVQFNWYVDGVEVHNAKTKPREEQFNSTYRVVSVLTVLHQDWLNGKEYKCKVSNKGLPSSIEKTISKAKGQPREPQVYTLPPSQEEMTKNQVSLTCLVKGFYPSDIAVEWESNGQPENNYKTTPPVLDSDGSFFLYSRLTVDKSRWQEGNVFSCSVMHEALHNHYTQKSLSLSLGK
Turning to B4, the entries for the concentration giving a half-maximal response (EC50 (read off the curve)) in [4] and in [5] were ~2 nM and ~4 nM, respectively.

B5: C-ABU4 (antibody, human IgG4 S228P, kappa, V domains shown)
VH: QVQLQQSGPQLVRPGASVKISCKTSGYSFTNYWMQWVKQRPGQGLEWIGMIDPSDSESRLNQKFKDKATLTVDKSSSTAYMQLSSPTFEDSAVYYCARRGSPMITSFAYWGQGTLVTVSA
VL: DVQITQSPSFLAASPGETITINCRASKNIGKYLAWFQEKPGKTNKLLIYSGSTLQSGIPSRFSGSGSGTDFTLTISSLEPEDFAIYYCQQHNEYPYTFGGGTKLEIKR
notes: Human chimeric IgG4 antibody
In the case of B5, in [6], the half-maximal effective concentration (EC50 (read off the curve)) was ~1 nM.

B6: Positive 3-IgG4-P (antibody)
heavy chain: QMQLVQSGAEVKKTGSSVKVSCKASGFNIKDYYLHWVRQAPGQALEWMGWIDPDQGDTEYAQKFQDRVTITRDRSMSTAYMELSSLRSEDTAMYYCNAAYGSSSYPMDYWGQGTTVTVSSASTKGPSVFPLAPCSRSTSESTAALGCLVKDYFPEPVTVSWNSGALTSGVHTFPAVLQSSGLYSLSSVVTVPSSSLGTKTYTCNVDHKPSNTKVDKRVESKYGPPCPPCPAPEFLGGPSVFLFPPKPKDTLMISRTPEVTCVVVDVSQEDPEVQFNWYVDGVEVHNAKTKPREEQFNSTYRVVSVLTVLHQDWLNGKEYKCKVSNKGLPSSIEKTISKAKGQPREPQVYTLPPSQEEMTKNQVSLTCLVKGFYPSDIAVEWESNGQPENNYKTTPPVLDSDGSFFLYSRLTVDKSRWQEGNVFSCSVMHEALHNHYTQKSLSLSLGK
light chain: QMTQSPSAMSASVGDRVTITCKASQDIHRYLSWFQQKPGKVPKHLIYRANRLVSGVPSRFSGSGSGTEFTLTISSLQPEDFATYYCLQYDEFPYTFGGGTKVEIKRTVAAPSVFIFPPSDEQLKSGTASVVCLLNNFYPREAKVQWKVDNALQSGNSQESVTEQDSKDSTYSLSSTLTLSKADYEKHKVYACEVTHQGLSSPVTKSFNRGEC
With B6, the “EC50 (read off the curve)” value in [4] was ~2 nM; in [5] it was ~4 nM; in [7], ~0.2 mg/L.

B7: Positive 3-IgG4-PE (antibody)
heavy chain: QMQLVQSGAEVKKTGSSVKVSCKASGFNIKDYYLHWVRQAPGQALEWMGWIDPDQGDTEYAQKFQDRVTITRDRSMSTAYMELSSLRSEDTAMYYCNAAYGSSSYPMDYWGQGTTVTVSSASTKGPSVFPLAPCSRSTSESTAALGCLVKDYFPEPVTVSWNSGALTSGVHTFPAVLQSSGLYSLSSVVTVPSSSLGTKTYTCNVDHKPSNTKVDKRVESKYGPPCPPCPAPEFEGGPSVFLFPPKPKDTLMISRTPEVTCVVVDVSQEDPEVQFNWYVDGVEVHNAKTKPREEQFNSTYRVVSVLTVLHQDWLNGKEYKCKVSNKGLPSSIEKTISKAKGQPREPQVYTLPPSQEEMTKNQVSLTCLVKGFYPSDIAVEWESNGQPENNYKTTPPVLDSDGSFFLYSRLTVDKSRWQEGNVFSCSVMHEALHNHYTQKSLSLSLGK
light chain: B6 light chain
As to B7, the concentration giving a half-maximal response (EC50 (read off the curve)) in experiment [4] is ~2 nM; in experiment [5], ~4 nM; in [7], ~0.1 mg/L.

B8: H-ABU 39 (antibody, V domains shown)
VH: QVQLVQSGAEVKKPGASVKVSCKTSGYSFTNYWMQWVRQAPGQGLEWIGMIDPSDSESRLNQKFKDRATLTVDTSTSTAYMELSSLRSEDTAVYYCARRGSPMITSFAYWGQGTLVTVSS
VL: DVQITQSPSSLSASVGDRVTITCRASKNIGKYLAWFQQKPGKTNKLLIYSGSTLQSGIPSRFSGSGSGTDFTLTISSLQPEDFATYYCQQHNEYPYTFGGGTKVEIK
notes: Humanized antibody
Regarding B8, the “IC50 (read off the curve)” value in [8] is ~0.3 nM.

B9: H-ABU 37 (antibody, V domains shown)
VH: B8 VH with T24A, S28T, I48M, A68V, L70M, V72R, A79V
VL: B8 VL
notes: Humanized antibody
Regarding B9, in [8], the “IC50 (read off the curve)” value was ~0.3 nM.

B10: H-ABU 38 (antibody, V domains shown)
VH: B8 VH with T24A, S28T, A79V
VL: B8 VL
notes: Humanized antibody
For the molecule B10, the “IC50 (read off the curve)” value in experiment [8] is ~0.3 nM.

B11: H-ABU 41 (antibody, V domains shown)
VL: B8 VL
VH: B8 VH with V5Q, R67K, T74K
notes: Humanized antibody
Turning to B11, the concentration for a half-maximal effect (EC50 (read off the curve)) was ~0.6 nM in [9], ~0.6 nM in experiment [10], ~1 nM in [11] and ~1 nM in experiment [12]. In addition, in experiment [8], the “IC50 (read off the curve)” value is ~0.3 nM.

B12: H-ABU 43 (antibody, V domains shown)
VH: B8 VH with I48M, A68V, L70M, V72R
VL: B8 VL
notes: Humanized antibody
B12: the “EC50 (read off the curve)” value in [9] was ~0.6 nM; in [10], ~0.6 nM; in experiment [11] it was ~1 nM; in [12] it was ~1 nM. Further, the “IC50 (read off the curve)” value in experiment [8] is ~0.3 nM.

B13: H-ABU44 (antibody, V domains shown)
VH: QVQLVQSGAEVKKPGASVKVSCKASGYSFTNYHIHWVRQAPGQRLEWIGWIYPGSGNTKYNEKFKGRATLTADTSASTAYMELSSLRSEDTAVYYCARYDYDLYLHSWGQGTLVTVSS
VL: DIQITQSPSSVSASVGDRVTITCHASQNINVWLSWYQQKPGKAPKLLIYKASNLHTGVPSRFSGSGSGTGFTLTISSLQPEDFATYYCQQGQSYPLTFGQGTKLEIK
Turning to B13, the 50% effective concentration (EC50 (read off the curve)) in [9] is ~0.1 nM; in experiment [10], ~0.1 nM; in experiment [11] it was ~0.2 nM; in [12], ~0.2 nM.

B14: H-ABU2b (antibody, V domains shown)
VH: QVQLVQSGAEVKKPGASVKVSCKASGYTFTDFYINWVRQAPGQRLEWMGWIYLGSGNTKYNEKFKGRVTITVDTSASTAYMELSSLRSEDTAVYYCARREERGFAYWGQGTLVTVSS
VL: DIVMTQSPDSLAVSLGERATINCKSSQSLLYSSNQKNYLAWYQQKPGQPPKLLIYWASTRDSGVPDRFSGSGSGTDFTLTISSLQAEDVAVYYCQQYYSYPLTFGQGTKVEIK
In the case of B14, binding in [13] was characterised by a dissociation constant (Kd) of 1.3 nM.

B15: H-ABU 6 (antibody, V domains shown)
VH: B14 VH with V72R
VL: B3 light chain with V30L, S33N, Y96F
Take B15: the half-inhibitory concentration (IC50) (commonly the concentration at which inhibition is half-maximal) in experiment [14] is < 1 nM. Also, the “IC50 (read off the curve)” value in [15] is ~0.4 nM.

B16: H-ABU 7 (antibody, V domains shown)
VH: B14 VH with F32H, V72R, E101D
VL: B3 light chain with V30L
With B16, the “EC50 (read off the curve)” value is ~0.6 nM in [10], ~1 nM in [11] and ~1 nM in experiment [12]. Besides, in experiment [14], the IC50 is < 1 nM. For the same molecule, in [15], the “IC50 (read off the curve)” value was ~0.09 nM.

B17: H-ABU 4 (antibody, V domains shown)
VH: B14 VH with F32I, T58V, V72R, E101D
VL: B3 light chain with V30L, S33N, N36Y, V58T, Y96F
Take B17: in experiment [14], the half-inhibitory concentration (IC50) was < 1 nM. For the same molecule, the “IC50 (read off the curve)” value in [15] is ~0.3 nM.
